The values below come from the DeepSol protein solubility set.

The nature of the data set: soluble on expression in E. coli; label from the status in PepcDB or PDB records.
For “MAHHHHHHMSTNRVATVVAGLDGANPVKRERHPAWYPPLKLDGNGLKVMNSLTETLEDFAPRDGRVVRWYTCGPTVYDLSHMGHARAYLTFDIIRRIMEDYFGYSVIYQMNITDIDDKIIKRARVNKLLVDFKEEELRHSDVAKLMAFTAEAVAAAESGLAKRKAALVEPIAKGTNSRAKADREEKLLEVQLKESQLVETKVKIAAAKDDFAALFAAASGVNGDLLDERSGHSVSDQQIFEDHARKYERAFFEDMQRLGIREPDIVTRVTEYVPQVVEFVQKIIDNGFAYAGETSVFFDTEAYIRAGHDYPKLKPGGDRNTTEDEMAEGEGVLSKGIEGEKRSPNDFALWKFSKPGEPRWPSPWGEGRPGWHIECSVMASDILGENMDIHSGGWDLKFPHHDNECAQSEACNLHSQWVNYFLHCGHLHIKGLKMSKSLKNFITIRQALDELGVTARTMRLLFLANPWNKPMNFSDQSLDEAKEKERVLRAFFGSVDIVLRADNWKATQGVNKHDRELLSKWVEAEAAVHAALQDNFDTVVALQQLMSLVAATNQYLLSGERPSATLVRKVGCYVTKMFRIFGVVEGSDDVGLQKQGSDDGEARFIEVVNTLVRFRDEVRNAAKDHKVVAGFLPLCDKVRDEWLVDAGVRLEDNPAGPTTWKSDEPALLQKELAERRAQQEGDRQRRLANQAETKRKLVEKWRQFTYPPSEYFRRQDEQRVEKKYTAYDDVTGLPTMTAAGEEVSEKEAKKLSKEQAKYAKSYDEFIGKGGVSWIQEQEAELASMVAELEGSK”, the “soluble on expression in E. coli” value is recorded as “not soluble”. On to “GPGSMISLDAYVRYVYQYSSPTTTEHLRQTVWGPLGLCSGASASPKPISGAQPCWRDASVSHEVLYAVPPITTNVRCVGSRIDAHLTDLLEALPLSSPTVPPTTPAAATLASRFARPSRLATIGLPFCLCVKPQTEHLTPWSLLCTSSSSPTDASNPEMNRKQPSRPLVLVVDTGAAEAVLRGSDLYAPGIVTASRPFHAGERAVVAFYVERVAGTGDEAQNGSAEAPCRLVCALPTGATLSAEQFEPLDMDVDYQDKHQQVDMLAGRSTFLVCIGSGVTCMEWKTVMSRSVHGTALRMEWTPQGQPSRATLRALLGITKGTEDSNARSSTPLPQPPSSGVEEGEERAADVFFLQNYSSMVPVALLVQHLSPAALRRAWTHSDDADQGRSPVPCTILDACAAPGGKTSLLLSLLQERAEQERTAMAEAAIPLPSATVATEPFRVVCCERSRPRQEQLMSLLHRHFASHLAAPSASPSLNSTPAVDVPYVTRVLESRCVDTNKFLKRKLTEAAGSSDGSAASHTASFDAVLLDPPCTGMGLRPKLMPHVQSIASIQRSADYQRKLFDSCIRHIRGSPTSPGVIVYSTCTTTLEENEANVLHFLCTYPSVRLARARTAAQRALCGLSTVRSYGAQHDTDGSHGSTCLCSCLLRNEITEVQLAKERAAAAEGLSSTDPLLLLRFMPRPLDIYDDISEDGVGFFVAVFLCSGYTDA”, for which the “soluble on expression in E. coli” value is “not soluble”. The value for “MSLHSLTRIKVLQRRCTVFHSQCESILLRYQDEDRGLQAEEEAILEQIAGLKLLLDTLRAENRQLSREEIYTLLRKQSIVRRQIKDLELQIIQIQEKRSELEKKREEFQKKSKYWLRKEGNYQRWIIRQKRFYIQREIQQEEAESEEIIEGHHHHHH” was “soluble”; that for “MKLDLIQSMLYNNPKPQDTKEGLSDQDFSIYMDAHTVPFSKYPSYMPAGVLGICTEGNAEIQVGLRKYVICANDILIFMPGFLVSFIKSSPTFTIDYCTFSNVLFYDVINGSIKRFPTGFHTYTQTHCVYSLSQEKAEQFSIYFRLLYNRATSPTYLFTKESITNLLKLPFLELYADYYSTVKEHKVTTLHKEEIGYFFLDLLLKHYKENKEVAFYAEKLHVSSKYLTEALTLVSGKSPKEWIIHYTLQEIYALLENPSISIQEIVQRTRFANLATLRRFFKRHTGTSLLQYRKQDLYKNNQ” was “not soluble”.

In the case of “MVNIDKIIGINNLPLANGLGEYAKRMEAVLGKNILSLVMDKRYKDMDYAGRKIYGYYPPITNGYLLNVYLSRSILKKYYKGKFPHLLSPFFYLGSEYESKSIITIHDTYYKWEKNKMQRLSKKIVRKYRSFKNIISISEQTKNDLIADGYDADNISVIYNYIDPIFRKLESINKDEKTVLTVGDGIHKNNILVNKIVNGRYYHIHIGKEVRADENYSGISTEELVKLYNRASVLIRLSDYEGFGYPPLEALFCGTPAVVSDIAVFRELLGDSAVYVKKDEVSILDGIEYAIQNRKEMLNRFESKIKSRYTKERFISNMIKYYKDL”, the “soluble on expression in E. coli” value was “soluble”. Take “MDWHCVSPDGCERSEELQRIDRAYSTDYEWEFASTVDDSFEEYAMRILTDSLGSGCAWLYDLTLLGYNLQRSRQCYTVAGFELELSIPNEDPATFSEWVVVGRDIDVLGEE”: the “soluble on expression in E. coli” value is reported as “not soluble”. In the case of “MVYRKVTISTKVFENTNAIVAWVSGRPVLLSKYEGKYYAMDAVCGHMGCAILDKVEGKEAVCPAHRARYDVTTGKKTADAVIRPEVKCEYNEASDTLKVYPVRENNGFLEVDMP” it was “not soluble”; in that of “MGSDKIHHHHHHAEDDRMTPLSADSGDTADELIPIHISLTGDNDYHSSSFNDASTRSHSPLIAEWVGVKAFSPTRTGEQPDYEGPRIASMELTEDTLPRVSTRATVPAGVYFRLIVFRKSGNNYVFQSVADYASNGTGTPVLERGKLLTRSGTIRVVGYSFNTTADLGDMPSTYAYNSSTVSIPDMSKDFMTFDSGDITNVNSLSHNLPVSFSQKLCKLTITISPTGFPSNTITNCTGVYVKQGGNSTSWKIGPSTNVVAANTNNTAAFSPNTTLNTTIRMVPFAGARTITVHFNTLTVGGRTVNNNTEITSTQSVQLKEGKSYTLKIQFKKGPGINVPASNINLTQNGCTENDKTILSKLRWAEGNLNSQSNYNLTWASSTTDYGYYYIWKNVYVSSGYTGYGAVDPCTRLDESIYGSGWRTPTRSEFISLSRCSNKQLVKYNGIQGMWFMNSSTGLFLPAAGYRDGDKGSGTTATAYTNGTGSYYWSSDLNGNSAYGLYILKNDVFVDANGNRKSGVSVRCVHNL”, “not soluble”.

For “MACVDISPLSYESVKSVVKYLSLKKREQINLSIPAYHKTAKLAPFKLENVGLSDLYIEVNDRTWTLSETDIIGCTLVLYRSNGYNFQHIISITPEVAFQKLISEYLRNGTRIKKFHLYALPSLLKNVELHVSELKIDGCDYETFAKFRKFIDHNQKILKEIGFVVRQNTLWMFDEQLVKNSKEIYLQFPYYNPVPLDDMLLRLKNNHVHIIYLGFPIEKLQELAMNWIDTKKPIGTSLFLVVEHYTYVIDVFEHLTKYSKAIPSRLTDLGTSFFSHCVTMHIDESSELVLFGGPMVIEWKPFKWTLRMTIMKRGSTISK”, the “soluble on expression in E. coli” value is on record as “not soluble”. In the case of “GSPNSTAEPTVAARPQQIDALRTLIRLGSLHTPMVVRTAATLRLVDHILAGARTVKALAARTDTRPEALLRLIRHLVAIGLLEEDAPGEFVPTEVGELLADDHPAAQRAWHDLTQAVARADISFTRLPDAIRTGRPTYESIYGKPFYEDLAGRPDLRASFDSLLACDQDVAFDAPAAAYDWTNVRHVLDVGGGKGGFAAAIARRAPHVSATVLEMAGTVDTARSYLKDEGLSDRVDVVEGDFFEPLPRKADAIILSFVLLNWPDHDAVRILTRCAEALEPGGRILIHERDDLHENSFNEQFTELDLRMLVFLGGALRTREKWDGLAASAGLVVEEVRQLPSPTIPYDLSLLVLAPAATGA” it was “soluble”; in that of “MSLKITDVDVWVVNLPLVNPFTSSFETKTGETRTVVRVRTDSGVEGWGETMWGAPVAAIVRRMAPDLIGTSPFALEAFHRKQHMVPFFYGYLGYAAIAAVDVACWDAMGKATGQSVTDLLGGAVRDEVPITALITRADAPGATPADLPKAMAEHAVRVVEEGGFDAVKLKGTTDCAGDVAILRAVREALPGVNLRVDPNAAWSVPDSVRAGIALEELDLEYLEDPCVGIEGMAQVKAKVRIPLCTNMCVVRFEDFAPAMRLNAVDVIHGDVYKWGGIAATKALAAHCETFGLGMNLHSGGELGIATAAHLAVVSSTPVLSRAIDSMYYLHADDIIEPLHLENGRLRVPSGPGLGVSVDEDKLRHYAGVNERDGDLTGEGHHHHHH”, “soluble”. The value for “METNFIGDDYGPLFHYQYRLIVIGDSTVGKSSLLRYFTEGKMAEISDPTVGVDFYARMIELRPGYRVKLQLWDTAGQEKFRSITKSYYRNSVGVLAIYDTTNRESFEHVENWVKEAALNLGGPSPSKCVFQLVGTKSDMDSQRQVNYEEGEYFAKYHKMKFIETSSRTGDNVNEAFHMIAQEIQNRVDDGELRPVDGWEGLKTGIMRSQSVCLSERSFPQNSSAGACGC” was “not soluble”; that for “METYDVLVIGGGPGGSTAARYAAKYGLRTLMIEKRPEIGSPVRCGEGLSKGILNEADIKPDKSFIANEVKGARIYGPSEKRPIILQSEKAGNEVGFVLERDKFDKHLAALAAKAGADVWVKSPALGVIKEDGKVAGAKIRHENNVVEVRAKMVIAADGFESEFGRWAGLKSVILARNDIISALQYRMINIDVDPDYTDFYLGSIAPGGYIWVFPKGEGMANVGIGSSINFIHNRLELKNYLDRFIENHPGLKKGQDIQLVTGGVSVSKVKMPITMPGLMLVGDAARLIDPITGGGIANAIVSGMYAAQVSKEAIESNDYSPQMMGKYEKLVKDRFERKHLRNWVAKEKLAQLSDETLDKLVDIVSEQVLTTISVEAILKAIAEKYPEVVKELEDLILEHHHHHH” was “soluble”. In the case of “MFTYKIGLSTSEHDRFVIDSPQTNLLQSSSWAKIKDSWGNDRLGFYQDDKLVAVASVLIQPLPLGFSMIYIPRGPIMDYQDKELLAFVITSLKKYAKTKRALFVKFDPSLFVTKNLISQEVNINEDTLSIAKDIQALGVEWTGLTEDMAENIQPRFQANIYKEDFTEEQLSKST” it was “not soluble”; in that of “MKFLYFGDPHIRGTNPRNRKDNYKEALIAKLREIFALAKYKGVTAIIQPGDTFDRPEVTTSVLLEFAKVLKESPVPIYTTAGNHDIYGYNLATYERTSLRVLELIVPQLTVINDPGQAQMFHQDGNHVQLTFTPYSDQIDKAGYGYSPEIIEDYESTKIHIAHGMLLDHDPPFDRYTKVQDVKTEADLVLCGHDHTGFGIYERSDGKVFVNDGSLTRLSASEAEMRRQISVLLIDVKAPRVFDLERIPLQSAKPGEEVLDRSRIEAEKKRAYAMEEFASLIQTETGEDVLVDINTIVESIAKTQSINSDVVEIALTKIAEAKEGLRT”, “not soluble”. On to “MSLNVFNTASDEDIKKGLASDVYFERTISAIGDKCNDLRVAMEATVSGPLDTWINFTGLDEVLKLLEGLDVDLYAIPEGTILFPRDANGLPVPFIRVEGRYCDFGMYETAILGFICQASGISTKASKVRLAAGDSPFFSFGIRRMHPAISPMIDRSAYIGGADGVSGILGAKLIDQDPVGTMPHALSIMLGDEEAWKLTLENTKNGQKSVLLIDTYMDEKFAAIKIAEMFDKVDYIRLDTPSSRRGNFEALIREVRWELALRGRSDIKIMVSGGLDENTVKKLREAGAEAFGVGTSISSAKPFDFAMDIVEVNGKPETKRGKMSGRKNVLRCTSCHRIEVVPANVQEKTCICGGSMQNLLVKYLSHGKRTSEYPRPKEIRSRSMKELEYFKDISEGHHHHHH”, for which the “soluble on expression in E. coli” value is reported as “soluble”.

On to “AHHHHHHGSKARGRAWKYGDNIDTDVIIPARYLNTSDPKELAQHVLEDLDPEFRYKMKPGDIIVAGENFGCGSSREHAPLAIKAAGVSAVIAKSFARIFYRNAINIGLPILEAPEAVERIETGDEIEIDFSTGEIRNLTKGEVYHANPFPEFIMEIIKAGGLVEWAKRRLAK”, for which the “soluble on expression in E. coli” value is on record as “soluble”. Consider “MGSDKIHHHHHHLRMSRIQARLLQAIVRPALKTNLLKHAAWRVVLKLRNEFAHAVPPVELETTFDENIRILTSLSDHIESQVFWQGFQEADEGVILLLKRFLPSDGSFIDVGANIGTFTLVAAHRAVRGQVHAFEPSAHHFARLAHNVELNDFKNVALNRKGLYDQPGEAVLFLPSQTGEMNNSGAASLYTSALEETRQVSEAVSLIRLDDYVREKSIGRVDIIKIDIEGAELKALEGARETIARFRPLVFMELDLDNLERAERSPEEVLQYWKSLNYEVSIILLTGETVPVTSPKEFGLHQNLQCRPF”, for which the “soluble on expression in E. coli” value is recorded as “not soluble”.
